Measurements from the supplement of paper PMC9732359.
± gives the uncertainty stated by the source.

Assay: protein stability index of a GFP-peptide fusion (yeast GPS) (PSI 1-4); higher = more stable; sorted into four equal gates, so the index is relative within each strain
Summary of the method: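 Plasmids in a pooled yeast library fused tiled 17-residue yeast protein peptides downstream of GFP and also expressed Cherry. Mid-log cultures grown without leucine were sorted into four equal gates by GFP/Cherry fluorescence ratio. Each gate's plasmids were PCR-amplified and Illumina-sequenced, and reads were matched to strains by barcodes. The protein stability index is derived by multiplying each gate's read frequency by its gate number and summing the results.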

Sequence	protein stability index (doa10∆)	protein stability index (pdr5∆)	protein stability index (san1∆)	protein stability index (ubr1∆)
ARNVTFDSLRNFIVHSP [GRR1]	2.14 ± 0.063	2.35 ± 0.057	2.25 ± 0.08	1.94 ± 0.041
ARQRGKLKKSEEKVLST [SRP68]	3.28 ± 0.19	3.21 ± 0.11	3.33 ± 0.071	3.67 ± 0.21
ARRTLQKLGLDETYKGV [RPL5]	–	2.97 ± 0.18	3.43 ± 0.14	–
ARWPAKSVKFVQGLLQN [RPL17A]	2.35 ± 0.097	2.17 ± 0.083	1.89 ± 0.088	2.13 ± 0.073
ARYYRTVAVLPPNWKYE [RPS13]	1.89 ± 0.044	2.1 ± 0.039	2.18 ± 0.051	1.92 ± 0.029
ASAASEAIRDPKNSSSP [SSN8]	2.61 ± 0.19	3.18 ± 0.2	2.46 ± 0.25	3.13 ± 0.13
ASAPLCSPKLPVEKVQR [DLS1]	2.78 ± 0.068	3.07 ± 0.067	2.92 ± 0.053	3.03 ± 0.049
ASITPYKLVNKNKENNT [RPN4]	1.08 ± 0.078	2.28 ± 0.092	2.48 ± 0.12	2.11 ± 0.07
ASLVDYVQVRQPIFVAH [RPS5]	1.99 ± 0.1	1.98 ± 0.069	2.1 ± 0.14	1.67 ± 0.11
ASLVPEGNQGSLQEDVS [MED8]	3.19 ± 0.096	3.24 ± 0.087	2.9 ± 0.048	2.41 ± 0.097
ASPHASVRTAVFSALKN [ECM29]	1.56 ± 0.051	1.58 ± 0.05	1.25 ± 0.083	1.42 ± 0.056
ASSTPIPVLGKPTDATG [YOR098C/NUP1]	2.43 ± 0.055	2.88 ± 0.055	2.6 ± 0.05	2.42 ± 0.036
ASVRIKDKFNQIPLHRA [NAS6]	2.55 ± 0.095	2.68 ± 0.12	2.91 ± 0.14	3.17 ± 0.055
ASYAKYLIDHIKVEGAV [RPL22A]	2.95 ± 0.17	3.13 ± 0.15	2.85 ± 0.092	3.23 ± 0.11
ATDISGELRDYIEDFLL [YJR042W/NUP85]	3.31 ± 0.1	3.31 ± 0.081	3.22 ± 0.056	3.3 ± 0.041
ATFLKDDLPYYVNALAD [QCR2]	2.37 ± 0.047	2.21 ± 0.046	2.27 ± 0.053	2.35 ± 0.032
ATGHRVLIFFQMTQIMD [SNF2]	1.84 ± 0.082	2.51 ± 0.069	2.72 ± 0.094	2.64 ± 0.13
ATGNESQDATKVDATPE [YLR335W/NUP2]	2.87 ± 0.086	3.22 ± 0.082	3.04 ± 0.066	2.94 ± 0.099
ATHLPKDNVEHLVMRAI [RPN9]	2.88 ± 0.089	3.09 ± 0.07	2.77 ± 0.067	2.9 ± 0.06
ATPQEAQFYLGKRIAYV [RPL33B]	1.64 ± 0.11	2.2 ± 0.068	1.76 ± 0.076	2.43 ± 0.077
ATSKTSEMLAKYSDILL [CDC53]	3.11 ± 0.091	3.18 ± 0.099	2.99 ± 0.1	3.07 ± 0.048
ATTQDQVASIIESFVEL [NUT2]	2.11 ± 0.071	2.65 ± 0.076	2.17 ± 0.15	2.49 ± 0.054
ATYSNEFKCMSVITAQQ [YGL100W/SEH1]	1.75 ± 0.053	1.48 ± 0.042	1.46 ± 0.085	2.01 ± 0.031
AVALAASDLVLIVIDVV [SNU114]	2.08 ± 0.052	2.5 ± 0.06	2.75 ± 0.094	2.13 ± 0.05
AVAVGNVEMEEDVLVNQ [RPL1A]	2.19 ± 0.091	2.17 ± 0.075	1.17 ± 0.11	2 ± 0.059
AVDKVISGYKKFSSTSR [RPT1]	3.46 ± 0.27	3.87 ± 0.23	3.21 ± 0.16	3.74 ± 0.14
AVHVTVRGPKAEEILER [RPL11A]	2.99 ± 0.11	2.98 ± 0.094	2.92 ± 0.12	3.05 ± 0.074

Sequence	protein stability index (doa10∆)	protein stability index (pdr5∆)	protein stability index (san1∆)	protein stability index (ubr1∆)
AVINIRDDGKRELLVEG [RPO31]	3.56 ± 0.2	3.06 ± 0.22	–	3.14 ± 0.1
AVKNKYNVGKQLSNEII [PRP28]	2.08 ± 0.066	2.52 ± 0.074	2.17 ± 0.088	2.3 ± 0.069
AVKYGLNHVVSLIENKK [RPL8B]	2.25 ± 0.079	2.37 ± 0.077	2.26 ± 0.089	2.01 ± 0.047
AVPLQIVSPQSNKPCMG [RPO21]	1.72 ± 0.059	1.71 ± 0.038	2.03 ± 0.065	1.78 ± 0.035
AVPRDELGRSNYGMIAI [FAS1]	2.97 ± 0.17	3.16 ± 0.15	3.28 ± 0.071	3.33 ± 0.22
AVRLILPGELAKHAVSE [HTB1]	3.23 ± 0.095	2.98 ± 0.064	1.52 ± 0.17	3.28 ± 0.064
AWRTLVGVSHTNEEVRN [CYT1]	–	2.98 ± 0.13	1.92 ± 0.15	2.18 ± 0.094
AYKFEEVSKDLIAVYYS [RPB8]	2.94 ± 0.071	3.14 ± 0.067	3.32 ± 0.045	3.11 ± 0.055
AYRTDVIQALGGIETIL [PRP8]	1.44 ± 0.073	1.54 ± 0.066	1.46 ± 0.13	1.45 ± 0.054
CAECSSKLSLSRTDAVR [RPC10]	2.12 ± 0.049	2.16 ± 0.047	2.51 ± 0.061	2.35 ± 0.05
CAEGIFVVKLDTVDRLI [GAL11]	2.89 ± 0.12	3.13 ± 0.11	3.02 ± 0.13	2.62 ± 0.092
CAINSKSRGSDLQYLGE [RRP6]	3.11 ± 0.06	3.18 ± 0.068	2.7 ± 0.069	3.2 ± 0.053
CANCVKERIVRAFLIEE [RPL34B]	–	3.47 ± 0.26	–	–
CARFLGNRGFSIGINDV [RPO31]	2.32 ± 0.21	–	–	2.88 ± 0.21
CDSYLDADKELSFEINV [BRR2]	2.64 ± 0.08	2.73 ± 0.062	2.92 ± 0.057	2.7 ± 0.047
CEAAVEISKKDFVRKGG [SIR3]	3.19 ± 0.11	2.9 ± 0.065	3.22 ± 0.068	3.25 ± 0.064
CELLKLTNEDPPGLMYL [SSN2]	2.85 ± 0.18	3.06 ± 0.19	3.26 ± 0.12	3.36 ± 0.11
CELQVETYGSMEMSEKI [RPN5]	2.76 ± 0.096	2.96 ± 0.074	2.71 ± 0.071	2.84 ± 0.077
CESCSTVLCTPTGGKAK [RPS27B]	1.94 ± 0.068	2.5 ± 0.056	2.07 ± 0.081	2.51 ± 0.053
CGAGVFLANHKDRLYCG [RPS31]	2.19 ± 0.097	1.46 ± 0.16	1.06 ± 0.21	2.5 ± 0.2
CGAWEPAITIEKLKQFS [SIR3]	1.97 ± 0.087	1.76 ± 0.079	2.58 ± 0.13	1.54 ± 0.072
CGFWQPAWRVWLNFLRG [PRP8]	2.52 ± 0.072	2.87 ± 0.12	1.62 ± 0.13	2.35 ± 0.062
CHDELKALPMLEQVEFE [MED4]	3.17 ± 0.14	3.12 ± 0.3	2.7 ± 0.21	3.29 ± 0.12
CILRFLQLPIEDKFLYG [SWI3]	1.85 ± 0.07	1.72 ± 0.085	1.18 ± 0.19	1.18 ± 0.077
CKDDVQLQKILESLKPI [MTW1]	3.11 ± 0.11	2.94 ± 0.089	2.79 ± 0.06	2.87 ± 0.07
CKEVGITAVHVKIRATG [RPS14A]	1.93 ± 0.043	1.82 ± 0.039	1.81 ± 0.085	1.89 ± 0.035
